± gives the uncertainty stated by the source.

The data set is described as follows: amyloid nucleation score (Sup35N fusion, yeast selection) (log enrichment); library NNK2; higher = more nucleation; inactive = no reads after selection. In a few lines:
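Peptides of 20 random codons fused to Sup35N were expressed in psi-negative yeast, induced 24 hours with 100 μM copper sulfate, then grown 7 days at 30°C on medium lacking adenine and uracil. Input and output plasmid inserts were Illumina-sequenced. Nucleation score is the DiMSum log enrichment of output over input reads, centred on the mode score of non-aggregating sequences, excluding sequences with under 100 input reads. Random libraries had three technical output replicates.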
In turn, VGPPEIWVEFFAV came in with an amyloid nucleation score of -0.813 ± 1.1. CWDCKLPHRPGVFMRNNHFK registered an amyloid nucleation score of -0.015 ± 0.45. On to HSWILNHNIDVTIGNVTWSG, for which the amyloid nucleation score was determined as 6.863 ± 0.03.

For the substance AEYKRGKEGSPLAIWWQLDP, the amyloid nucleation score was 2.34 ± 0.13. Regarding HHVEGMGYFLS, the amyloid nucleation score amounted to 0.175 ± 0.25. On to FVESVSEPALCIFKVSGYCS, for which the amyloid nucleation score is -0.685 ± 0.79. The same measure for YIELMGHWVGTSRKCVSDRS: -0.243 ± 1.1; for TLFGHFSYFQD: -0.124 ± 0.65; for EKQKWYYLELREAAQC: 0.284 ± 0.2. Consider STLNSYS, for which the amyloid nucleation score was -0.42 ± 0.61. YYIQHHSF had an amyloid nucleation score of 3.37 ± 0.082.

FQNITVYSFRATGVTGQRSC: the amyloid nucleation score is -0.447 ± 0.5. Substance TGRFLEVREQRRDARVEMSR returned an amyloid nucleation score of 0.183 ± 1. As for GYIMIPRYPPSKHLCF, the figure is -0.545 ± 0.41.

Substance GRNFYESNCAMFDRYSCFGS showed an amyloid nucleation score of 0.255 ± 1.1. The substance GKLSGTPWTLSGATKRALLY registered an amyloid nucleation score of -0.494 ± 0.64. The substance FRVIYDRHTGILRSHERAKG showed an amyloid nucleation score of -0.551 ± 0.35.

With NGGLLYDI, the amyloid nucleation score result was “inactive”. YWKGNTRIGQVLFYTLSCKT: the amyloid nucleation score is 0.389 ± 0.8.

Take LWSRVVVWQDRYVV: the amyloid nucleation score entry is “inactive”. As to RSHTTGLPS, the amyloid nucleation score came to 0.718 ± 0.15. For the substance NCNRYRMRTKFRRSYMGSVR, the amyloid nucleation score is 0.157 ± 0.28. In the case of IRYWSMLLEVG, the amyloid nucleation score was found to be 5.683 ± 0.046.

Take DDVMMILGNNTSYVLFNMPC: the amyloid nucleation score result was “inactive”.

MPNNVPEEN yielded an amyloid nucleation score of 0.216 ± 0.62. In turn, TCDKLGAVVMSLLECVNEAP displayed an amyloid nucleation score of 0.205 ± 0.77. RYRHLTFLVFCIAVPVGFWR: the amyloid nucleation score was found to be 2.04 ± 0.14. As for GKIKTVFWSKDLRFVFIMCV, the figure is -0.633 ± 0.48; as for EVSRKTDTGQLLSDHVFFMN, -2.23 ± 0.78; as for EEILHLVPINWGLYYYYTFC, “inactive”. DNELFPLYWNR returned an amyloid nucleation score of 0.309 ± 0.15. Turning to VCHHSSI, the amyloid nucleation score entry is “inactive”. As for SHTITSGWCAGWIGFSPICR, the amyloid nucleation score came out at 0.932 ± 0.32. In the case of ETGCLRARAVATGVLGRREK, the amyloid nucleation score came to 0.171 ± 0.65.

Consider DQFSGNACSIIVLVSALACF, for which the amyloid nucleation score was 3.01 ± 0.17. In the case of RLCANDLIIGVEMGEGVFDY, the amyloid nucleation score came to 1.1 ± 0.31. Consider EWFNRSRYKCHRRHVLMAMV, for which the amyloid nucleation score amounted to 0.343 ± 0.8.

In turn, NIFRMHLGQASQVIIFLDCR yielded an amyloid nucleation score of 4.58 ± 0.12. Consider MIFLYCYIRIEKKVS, for which the amyloid nucleation score is -0.927 ± 0.36. Regarding GYSLYVYIMDFFTWGNRVII, the amyloid nucleation score came out at 2.02 ± 0.19. FPLRCFTIFSMRASNF returned an amyloid nucleation score of 0.615 ± 0.66. The same measure for LYDGSVRQWTDEHWWVMSGG: 0.988 ± 0.28; for PSRMCSCCPLRGSCKDMACR: 0.256 ± 0.18.

For the substance SWNSV, the amyloid nucleation score is -0.442 ± 0.41. The same measure for MGRTMILRSLDQMMVITVGL: -0.598 ± 0.36; for CTYVYESRHQGIGVLASLSN: -0.784 ± 0.76; for LFSTTRFVAHKAGR: 0.47 ± 0.33. As for KVGKDTVYKGQSIQSVYLRC, the figure is -0.41 ± 0.49; as for ELMDNFLVSFVGKHRVTRSS, “inactive”; as for VFIRAGIVFQFWCNG, 7.22 ± 0.043. As for IMCQVSR, the amyloid nucleation score is -0.171 ± 1. In the case of FFCSSRPDE, the amyloid nucleation score is -0.286 ± 0.8.

Turning to GVWIFKYCRNNWFGFLIISA, the amyloid nucleation score stood at 3.33 ± 0.1. YKLYTFCKSRMHVPAYGFSY displayed an amyloid nucleation score of -1.96 ± 1.1. For SVSRSYGEVRLEHTVLETCR, the amyloid nucleation score amounted to 0.619 ± 0.64.

TCWSFECTIEACLLDHVSTR registered an amyloid nucleation score of 5.97 ± 0.081. Turning to FIMYFYKRTNYNFIKYHASA, the amyloid nucleation score came to 1.52 ± 0.15. In turn, SWMSGVVITETHTALGSWVN returned an amyloid nucleation score of 0.442 ± 0.37. In turn, CGLNCVAGGREEDRVYVLSS gave an amyloid nucleation score of 0.088 ± 0.22. As for DRSSS, the figure is 0.447 ± 0.31; as for WEYTG, 0.242 ± 0.74; as for VYFAKRLFVLFIM, “inactive”. For the substance WICFYDYWQGFSHNDCREME, the amyloid nucleation score was -0.97 ± 0.36. CYMCWFNIILLQKFKRQGVL came in with an amyloid nucleation score of 4.29 ± 0.063.

As for NILLIPMRGFSRFRSVMVIP, the amyloid nucleation score is -0.202 ± 1.1.

On to FIRSSIVWCC, for which the amyloid nucleation score worked out at 6.04 ± 0.077. For the substance LVFGVLQVCVLCSVTDNLGA, the amyloid nucleation score stood at 0.159 ± 0.35. As to IPITSGIRRNCSSVRKDLGC, the amyloid nucleation score turned out to be 0.123 ± 0.39.

RNFDMPLLAYGMTWEQLMEF: the amyloid nucleation score came to 4.51 ± 0.058. In the case of FMELLYHSASYSARFTRKSR, the amyloid nucleation score was 2.69 ± 0.098. For QYGVLSSETLGCTVFKWYVS, the amyloid nucleation score amounted to 0.468 ± 0.6. As for MMLSLANNHGSL, the figure is 0.174 ± 0.28; as for KPNPFLVLLLRT, -0.123 ± 0.46. As for CIMPVCVYDCLPLGRGIYWR, the figure is 0.745 ± 0.22; as for GITFPGFI, 0.115 ± 0.28; as for PLGSMTNDTTDRNFEVSGRG, -0.106 ± 0.31. DQCPFFSVWWSSLDYSWM displayed an amyloid nucleation score of -0.094 ± 1. The same measure for GMPNFSVFVWAF: 2.59 ± 0.082; for TKMVCSKRMFVECVLNLF: 0.221 ± 0.31. As for PSQHSWGWARCLQDCDSMPG, the figure is 0.591 ± 0.34; as for CGRLGLHYQCMLCCGIGSIL, 2.23 ± 0.27; as for SSFSIMLCGGVIFCIVAN, 5.02 ± 0.078. Take VIWHWVAGH: the amyloid nucleation score came to 5.71 ± 0.087. GSLDWRMELWWKFFLHHQPL: the amyloid nucleation score worked out at 0.759 ± 0.74.

DTKRVSINVRDNVTLRSFSW gave an amyloid nucleation score of -0.392 ± 0.33.

On to GGTDMATFNVPKNEVRDRRG, for which the amyloid nucleation score was found to be 1.4 ± 0.25. The same measure for TSKFSLRVFDLFSIYGYGHT: -0.125 ± 0.45. The same measure for SFLMCGHWIACALTMMVMFQ: 0.896 ± 0.58; for HFRVMHSFQGQYKVIFK: 2.73 ± 0.098. On to ANPWDRSFIVKVCRSDVVRV, for which the amyloid nucleation score is 0.246 ± 0.38. The substance RDIMR gave an amyloid nucleation score of 0.57 ± 0.5. The same measure for GYDNTAWELTGGVD: -0.311 ± 0.3. The same measure for WRSYDMYSSWSIYVMAMTIS: -1.11 ± 0.53; for MTYCVN: 3.87 ± 0.067; for SREVFDVLGKFFCSPQDRVV: 0.294 ± 0.8. Turning to LAMMELYVSRETGLWYM, the amyloid nucleation score was -0.503 ± 0.32. Consider LSLFHPCLL, for which the amyloid nucleation score was -0.182 ± 0.3.

IYLYPSYWCCFNRL had an amyloid nucleation score of 9.605 ± 0.059. SMQLDSFCVICGWFALVGLV: the amyloid nucleation score came to 6.67 ± 0.052. Substance ILLHIDNGRRSFSNIKATS gave an amyloid nucleation score of -0.886 ± 1.1. As for IADQTSSSDYLVRTVFNFSV, the amyloid nucleation score is 1.72 ± 0.099. KAGLWYNCPAMYDGYLRLKA gave an amyloid nucleation score of 1.98 ± 0.15.

As for HKLLCGYTQSQHQRIGFQEF, the amyloid nucleation score was -0.733 ± 1.1.

Consider FIEGVRMHLRGM, for which the amyloid nucleation score amounted to 2.86 ± 0.094. In turn, ARLKLDRRPMKSSMVCIHSA registered an amyloid nucleation score of 6.16 ± 0.089. On to VVAGEYGWTWFFKESLGLGM, for which the amyloid nucleation score is -0.332 ± 0.49. CKRSTH yielded an amyloid nucleation score of -0.461 ± 0.49. In the case of NHAVVCLDFNGGFPGQA, the amyloid nucleation score was -0.481 ± 0.53. As for IRGSKSFHLCEAK, the amyloid nucleation score was 0.213 ± 0.33. In turn, WSHVYSV registered an amyloid nucleation score of -0.124 ± 0.76. The same measure for RVTNLIHQLRVPKIGKSGFA: 0.294 ± 0.23; for RVLREKCSIGVAGKYSY: -0.512 ± 0.49. In the case of YCVTTVGARCLVKFHHLDSG, the amyloid nucleation score is 2.11 ± 0.15.

DIDGWCTIYMDIVYMKTCPY: the amyloid nucleation score is 0.262 ± 0.56.

Consider WWYRLLWDKSCL, for which the amyloid nucleation score is -1.06 ± 0.49. Substance SCNPRKNGSQCCGMNLSLSV gave an amyloid nucleation score of 0.808 ± 0.8. The substance AYCFVGFALVRCVGANDVRR displayed an amyloid nucleation score of 1.6 ± 0.22. As for YRILSNASWTFAVVQSCNPY, the figure is 5.789 ± 0.047. As for HRFVFGVYWVVVR, the entry is “inactive”; as for VYAIHGTRYCELGAPIDKLY, 0.852 ± 0.29; as for MFVFRCVVRTCRSDHENDHS, 4.987 ± 0.049.

Take WPGRRRYAMCVMTKRRGGLE: the amyloid nucleation score is 0.422 ± 0.29. As for DFNVSLSCHEKLMMVSFRWR, the figure is -0.373 ± 0.34; as for EFCSYDGCYFIASMAFVDTR, -0.393 ± 1.1; as for TVLVSRFDIIRHRCPTELKR, 0.153 ± 0.8. The same measure for SCIMECM: -0.108 ± 1.1; for SYRSVYYLVMGFPIGHH: -1.67 ± 1; for YSMWGYCISPNKHVYFTHGR: -0.421 ± 0.78. The substance KWLND came in with an amyloid nucleation score of 0.205 ± 0.41. As for IARSKVGRRYHVGRFRCVCV, the figure is -0.095 ± 0.44; as for FDVLMRSTGRANKKFLVCRQ, -0.033 ± 0.38; as for GSSKFPDFSISLMYELFDI, -0.91 ± 1.1. For the substance VRWNIVKSCAVMDSNGIMWV, the amyloid nucleation score was 0.432 ± 0.33. With ISLDWAPN, the amyloid nucleation score result is “inactive”. Regarding MIRWSRRTCRKGLTECTCST, the amyloid nucleation score amounted to 1.52 ± 0.33. The substance LRTVDVAR had an amyloid nucleation score of -0.654 ± 0.55. Regarding ICIHYANNLLVNMRTKMCHK, the amyloid nucleation score was found to be 9.369 ± 0.054. As for CGMISLSSNVMSFALPFLYY, the amyloid nucleation score amounted to 0.824 ± 0.15. Regarding RKLIFVMTRRLGRSSRTVLM, the amyloid nucleation score turned out to be 0.112 ± 1.1. LILNIRTTGCGYFC: the amyloid nucleation score stood at 8.818 ± 0.049.

For the origin of these results see the supplement of paper PMC12042874.
